Experimental data taken from patent US20230025280A1, “PH RESPONSIVE COMPOSITIONS, FORMULATIONS, AND METHODS OF IMAGING A TUMOR” (ONCONANO MEDICINE, INC, priority 2019, published 2023).
“Also recorded” adds a separate entry of the source.

How the values were obtained:
[1] = Stability of Compound 1 at long-term storage condition of −80° C.; type: physicochemical
solid neoplasia = assay: Tumor imaging in dogs with solid neoplasia; type: in vivo, dog
Description: Materials and methods: After evaluation and recruitment for the study, dog-patients underwent (A) pre-operation analysis to identify possible types of lesion, and (B) Compound 1 tracer was administrated at 0.5 to 2.0 mg/kg, 18-78 hours prior to surgery. During the surgery (C) intra-operative imaging was performed using a Hamamatsu PDE or custom NIR camera before and after tumor removal (or after limb amputations). Resected tissues were (D) imaged with a LI-COR Pearl Imaging station and tumor-to-normal-tissue ratios were calculated accordingly. The resected tissues were then (E) preserved for histopathology validation. Safety was assessed separately in terms of adverse effects through physical examinations, laboratory tests and the recording of adverse events from infusion through discharge from hospital.
Results: A summary of the data from spayed or neutered dog patients that were recruited for the study is shown below (Table 16). Results from a total of seven dogs of different breeds, aged 4-12 years, body weights ranging from 20.9-59.5 kg, and with a range of tumors ware presented, including instances where more than one tumor was present. Doses studied thus far ranged from 0.5-2.0 mg/kg. […] Both acute and chronic adverse effects were monitored from the time of injection through discharge of the animals from the hospital and follow-up appointments (to remove sutures) and noted.

## PEO90-140-b-P(DBA60-150-r-ICG0-3-r-AMA0-3) [Compound 1]
[1]; 0 months
  % ICG 784 nm (% wt): 1.3%
  Appearance: Pass
  Assay RID - Polymeric Content SEC (% wt): 96.4%
  Content 784 nm (% wt): 80.9%
  Identification - SEC (RT): Pass
  Impurities Specified: ICG-like: 1.9%
  Microbial Limits Total aerobic count: <1 cfu/mg
  Microbial Limits Total yeast and mold: <1 cfu/mg
  Total Impurities: 1.9%
  Water Content: 0.48%
[1]; 3.0 mg/mL injection, the duration thus far
  Duration stable at long-term storage condition: up to 24 months
[1]; 1 month
  % ICG 784 nm (% wt): 1.4%
  Appearance: Pass
  Assay RID - Polymeric Content SEC (% wt): 98.5%
  Content 784 nm (% wt): 82.0%
  Identification - SEC (RT): Pass
  Impurities Specified: ICG-like: 1.8%
  Total Impurities: 1.8%
  Water Content: 0.33%
[1]; 6 months
  % ICG 784 nm (% wt): 1.4%
  Appearance: Pass
  Assay RID - Polymeric Content SEC (% wt): 102.3%
  Content 784 nm (% wt): 86.2%
  Identification - SEC (RT): Pass
  Impurities Specified: ICG-like: 1.7%
  Total Impurities: 1.7%
  Water Content: 0.54%
[1]; 12 months
  % ICG 784 nm (% wt): 1.3%
  Appearance: Pass
  Assay RID - Polymeric Content SEC (% wt): 90.4%
  Content 784 nm (% wt): 74.7%
  Identification - SEC (RT): Pass
  Impurities Specified: ICG-like: 1.7%
  Microbial Limits Total aerobic count: <1 cfu/mg
  Microbial Limits Total yeast and mold: <1 cfu/mg
  Total Impurities: 1.7%
  Water Content: 0.74%
[1]; 18 months
  % ICG 784 nm (% wt): 1.5%
  Appearance: Pass
  Assay RID - Polymeric Content SEC (% wt): 100.4%
  Content 784 nm (% wt): 94.7%
  Identification - SEC (RT): Pass
  Impurities Specified: ICG-like: 0.6%
  Total Impurities: 0.6%
  Water Content: 0.64%
[1]; 24 months
  % ICG 784 nm (% wt): 1.5%
  Appearance: Pass
  Assay RID - Polymeric Content SEC (% wt): 99.7%
  Content 784 nm (% wt): 98.1%
  Identification - SEC (RT): Pass
  Impurities Specified: ICG-like: 0.6%
  Microbial Limits Total aerobic count: <1 cfu/mg
  Microbial Limits Total yeast and mold: <1 cfu/mg
  Total Impurities: 0.6%
  Water Content: 0.51%
Solid neoplasia; 7 dogs, 0.5-2.0 mg/kg, 24 or 72 hr before surgery
  Fluorescent signals in diseased tissues: fluorescent signals were observed where expected for diseased tissues
Solid neoplasia; one dog-patient, metastatic popliteal lymph node
  Detection of occult disease: occult disease was identified; also recorded: identification of occult disease
